# Measured values as given in paper PMC3807213 (Journal of molecular biology, 2012).
# B1: EcoP15I modification (Mod) subunit (enzyme, UniProt P12364 1-644, looked up)
# chain: MKKETIFSEVETANSKQLAVLKANFPQCFDKNGAFIQEKLLEIIRASEVELSKESYSLNWLGKSYARLLANLPPKTLLAEDKTHNQQEENKNSQHLLIKGDNLEVLKHMVNAYAEKVKMIYIDPPYNTGKDGFVYNDDRKFTPEQLSELAGIDLDEAKRILEFTTKGSSSHSAWLTFIYPRLYIARELMREDGTIFISIDHNEFSQLKLVCDEIFGEQNHVGDLVWKNATDNNPSNIAVEHEYIIVYTKNKEQLISEWKSNISDVKNLLVNIGEEFASKYTGNELQEKYTQWFREHRSELWPLDRYKYIDKDGIYTGSQSVHNPGKEGYRYDIIHPKTKKPCKQPLMGYRFPLDTMDRLLSEEKIIFGDDENKIIELKVYAKDYKQKLSSVIHLDGRVATNELKELFPEMTQPFTNAKTIKLVEDLISFACDGEGIVLDFFAGSGTTAHTVFNLNNKNKTSYQFITVQLDEPTKDKSDAMKHGYNTIFDLTKERLIRASKKNRDQGFKVYQLMPDFRAKDESELTLSNHTFFDDVVLTPEQYDTLLTTWCLYDGSLLTTPIEDVDLGGYKAHLCDGRLYLIAPNFTSEALKALLQKVDSDKDFAPNKVVFYGSNFESAKQMELNEALKSYANKKSIELDLVVRN
# Assays:
# AUC = biological target: the molecule itself; experiment: AUC
# [1] = biological target: B1; experiment: AUC + other: dynamic light scattering
stoichiometry N [1],Binder,stoichiometry N (AUC)
,B1,2
1 Res per Mod (2:2),"EcoP15I restriction (Res) subunit (enzyme, UniProt Q5ZND2 1-970, looked up) MSKGFTLEKNLPHQKAGVDAVMNVFVSATPHLTDNVAVRLLANPELKLSEQQYYNNIKNVQAFNGIAHSKDNHNAKSNIIDVSMETGTGKTYTYIKTIFDLNKSFGINKFIIIVPTLSIKAGTVNFLKSDALKEHFRDDYKRELRTYVVESQKNAGKNTKSYMPQAIHDFVEASNFNKKYIHVLVINSGMINSKSLTDTYDTGLLDNQFNTPVDALRAVKPFIIIDEPHRFPTGKKTWENIEKFNAQYIIRYGATFSEGYKNLVYRLTAVDAFNDDLVKGIDAYIEDIVGDGNANLKFVKSDGKEATFELNENNNKKSFKLAKGESLSKTHSAIHDLTLDALNKSTAVLSNGIELKIGSSINPYSYDQTLADNMMRKAVKEHFKLEKELLTQRPRIKPLTLFFIDDIEGYRDGNDISGSLKTKFEEYVLAEANELLKTEQDAFYKNYLEKTVTNISSVHGGYFSKDNSDKDDKIEQEINEILHDKELLLSLDNPRRFIFSKWTLREGWDNPNVFQICKLRSSGSTTSKLQEVGRGLRLPVNEYMCRVKDRNFTLKYYVDFTEKDFVDSLVKEVNESSFKERVPSKFTQELKEQIMAQYPELSSRALMNELFNDEIIDDNDNFKDSDAYSRLKSKYPAAFPIGVKPGKIKKATDGKRRTKMRVGKFSELKELWDLINQKAVIEYKINSESEFLSIFKSFMLEETERFTKSGVHTRIDKIYIHNDMAMSKSIVSDDDDFAKLNTMSYREFLDNLSQTIFVKHGTLHKVFCDIKDTINITEYLNIQTIRKIKSGFSKYLLNNSFNKFSLGYNLISGSIHPTKFTNADGNPLGEVLSSDLGVLQDNAKAPLDTYLFEEVFYDSELERRNITDREIQSVVVFSKIPKNSIKIPVAGGYTYSPDFAYVVKTAEGDYLNFIIETKNVDSKDSLRLEEKRKIEHAQALFNQISQSVKVEFRTQFANDDIYQLIKSALP",
